Data taken from US20040018971A1 (published 2004).

biological target: HLA-B*0702 (human); test: competition vs 125I-labelled probe peptide, purified HLA, gel filtration

| IC50 [nM] | Binder |
| --- | --- |
| 458 | FPGKNGVI (8-mer analog of the HER2/neu peptide starting at position 1174) [Her2/neu.1174.F1I8] |

biological target: HLA-B*5101 (human); test: as above

| IC50 [nM] | Binder |
| --- | --- |
| 177 | FPGKNGVI (8-mer analog of the HER2/neu peptide starting at position 1174) [Her2/neu.1174.F1I8] |

biological target: HLA-B*5401 (human); test: as above

| IC50 [nM] | Binder |
| --- | --- |
| 385 | FPGKNGVI (8-mer analog of the HER2/neu peptide starting at position 1174) [Her2/neu.1174.F1I8] |

biological target: T1, HLA-A*0201 (purified HLA class I molecule) (human); test: competition with 125I-labelled standard peptide for purified HLA, gel filtration
T1 construct: also called HLA-A2.1

| relative binding ratio (IC50 of standard peptide / IC50 of test peptide) [ratio] | Binder |
| --- | --- |
| 0.0001 | PLPSETDGYV (Synthetic peptide; also called HER2/neu 1119-1128) [HER2/neu peptide, position 1119, 10 amino acids] |
| 0.0001 | PVTGASPGGL (Synthetic peptide) [HER2/neu peptide, position 128, 10 amino acids] |
| 0.0001 | PLDSTFYRSL (Synthetic peptide; also called HER2/neu 999-1008) [HER2/neu peptide, position 999, 10 amino acids] |
| 0.0008 | QLRSLTEIL (Synthetic peptide) [HER2/neu peptide, position 141, 9 amino acids] |
| 0.0003 | PLTSIISAVV (Synthetic peptide) [HER2/neu peptide, position 650, 10 amino acids] |
| 0.0015 | PLTSIISAV (Synthetic peptide) [HER2/neu peptide, position 650, 9 amino acids] |
| 0.0001 | QLCYQDTIL (Synthetic peptide; also called HER2/neu 160-168) [HER2/neu peptide, position 160, 9 amino acids] |
| 0.0062 | QLFRNPHQA (Synthetic peptide; also called HER2/neu 484-492) [HER2/neu peptide, position 484, 9 amino acids] |
| 0.0006 | QIAKGMSYL (Synthetic peptide; also called HER2/neu 828-836) [HER2/neu peptide, position 828, 9 amino acids] |
| 0.0002 | PINCTHSCV (Synthetic peptide; also called HER2/neu 627-635) [HER2/neu peptide, position 627, 9 amino acids] |
| 0.0002 | PLQPEQLQV (Synthetic peptide) [HER2/neu peptide, position 391, 9 amino acids] |

biological target: HLA-A*1101 (human); test: competition with 125I-labelled probe peptide on purified HLA-A*1101, relative to standard peptide 940.06

| relative binding ratio | Binder |
| --- | --- |
| 0.0005 ratio (IC50 of standard peptide / IC50 of test peptide) | TLIDTNRSR (Synthetic peptide) [HER2/neu peptide, position 182, 9 amino acids] |
| 0.0015 ratio (IC50 of standard peptide / IC50 of test peptide) | RGTQLFEDNY (Synthetic peptide) [HER2/neu peptide, position 103, 10 amino acids] |
| 0.075 ratio (IC50 of standard peptide / IC50 of test peptide) | SVFQNLQVIR (Synthetic peptide) [HER2/neu peptide, position 423, 10 amino acids] |
| 0.0001 ratio (IC50 of standard peptide / IC50 of test peptide) | RLLDIDETEY (Synthetic peptide) [HER2/neu peptide, position 868, 10 amino acids] |
| 0.0072 ratio (IC50 of standard peptide / IC50 of test peptide) | TVPWDQLFR (Synthetic peptide) [HER2/neu peptide, position 479, 9 amino acids] |
| 0.002 ratio (IC50 of standard peptide / IC50 of test peptide) | SSEDCQSLTR (Synthetic peptide) [HER2/neu peptide, position 208, 10 amino acids] |
| 0.0038 ratio (IC50 of standard peptide / IC50 of test peptide) | RILKETELR (Synthetic peptide) [HER2/neu peptide, position 713, 9 amino acids] |
| -0.0002 ratio (IC50 of standard peptide / IC50 of test peptide) | VARCPSGVK (Synthetic peptide) [HER2/neu peptide, position 597, 9 amino acids] |
| 0.0072 ratio (IC50 of standard peptide / IC50 of test peptide) | VLVKSPNHVK (Synthetic peptide) [HER2/neu peptide, position 851, 10 amino acids] |
| 0.0001 ratio (IC50 of standard peptide / IC50 of test peptide) | RLVHRDLAAR (Synthetic peptide) [HER2/neu peptide, position 840, 10 amino acids] |
| 0.0007 ratio (IC50 of standard peptide / IC50 of test peptide) | VLIAHNQVR (Synthetic peptide) [HER2/neu peptide, position 84, 9 amino acids] |
| 0.0002 ratio (IC50 of standard peptide / IC50 of test peptide) | VLQGLPREY (Synthetic peptide) [HER2/neu peptide, position 546, 9 amino acids] |
| 0.0001 ratio (IC50 of standard peptide / IC50 of test peptide) | TLEEITGYLY (Synthetic peptide; also called Her2/neu.402) [HER2/neu peptide, position 402, 10 amino acids] |
| 0.005 ratio (IC50 of standard peptide / IC50 of test peptide) | RVLQGLPREY (The row follows '545; 8 then 545; 10 at the same point) [HER2/neu peptide, position printed as 515 (read as 545), 10 amino acids] |
| 0.11 ratio (IC50 of standard peptide / IC50 of test peptide) | RILKETELRK (Synthetic peptide) [HER2/neu peptide, position 713, 10 amino acids] |
| 0.12 ratio (IC50 of standard peptide / IC50 of test peptide) | TIDVYMIMVK (Synthetic peptide) [HER2/neu peptide, position 948, 10 amino acids] |
| 0.0003 ratio (IC50 of standard peptide / IC50 of test peptide) | SMPNPEGRY (Synthetic peptide) [HER2/neu peptide, position 281, 9 amino acids] |
| 3.6 ratio (IC50 of standard peptide / IC50 of test peptide) | TILWKDIFHK (Synthetic peptide; also called Her2/neu.166) [HER2/neu peptide, position 166, 10 amino acids] |

biological target: HLA-A*1101 (human); test: competition with 125I-labelled probe peptide for purified HLA-A*1101, gel filtration; standard peptide 940.06 [..] (6.0 nM)

| relative binding ratio | Binder |
| --- | --- |
| 0.072 ratio (IC50 of standard peptide / IC50 of test peptide) | HTVPWDQLFR (also called Her2/neu.478) [HER2/neu peptide, position 478, 10 amino acids] |
| 0.0007 ratio (IC50 of standard peptide / IC50 of test peptide) | HSCVDLDDK [HER2/neu peptide, position 632, 9 amino acids] |
| 0.0003 ratio (IC50 of standard peptide / IC50 of test peptide) | LGSGAFGTVY [HER2/neu peptide, position 726, 10 amino acids] |
| 0.0003 ratio (IC50 of standard peptide / IC50 of test peptide) | LSPGKNGVVK [HER2/neu peptide, position 1173, 10 amino acids] |
| 0.0003 ratio (IC50 of standard peptide / IC50 of test peptide) | LMTFGAKPY [HER2/neu peptide, position 915, 9 amino acids] |
| 0.14 ratio (IC50 of standard peptide / IC50 of test peptide) | LLNWCMQIAK [HER2/neu peptide, position 822, 10 amino acids] |
| 0.0023 ratio (IC50 of standard peptide / IC50 of test peptide) | ILKETELRK [HER2/neu peptide, position 714, 9 amino acids] |
| 0.0003 ratio (IC50 of standard peptide / IC50 of test peptide) | LACHQLCAR [HER2/neu peptide, position 509, 9 amino acids] |
| 0.0002 ratio (IC50 of standard peptide / IC50 of test peptide) | LIQRNPQLCY [HER2/neu peptide, position 154, 10 amino acids] |
| 0.0003 ratio (IC50 of standard peptide / IC50 of test peptide) | LALTLIDTNR [HER2/neu peptide, position 179, 10 amino acids] |
| 0.0099 ratio (IC50 of standard peptide / IC50 of test peptide) | KIPVAIKVLR [HER2/neu peptide, position 747, 10 amino acids] |
| 0.31 ratio (IC50 of standard peptide / IC50 of test peptide) | ILWKDIFHK (also called Her2/neu.167) [HER2/neu peptide, position 167, 9 amino acids] |
| 0.0063 ratio (IC50 of standard peptide / IC50 of test peptide) | LCYQDTILWK [HER2/neu peptide, position 161, 10 amino acids] |
| 0.0004 ratio (IC50 of standard peptide / IC50 of test peptide) | KIRKYTMR [HER2/neu peptide, position 681, 8 amino acids] |
| 0.0001 ratio (IC50 of standard peptide / IC50 of test peptide) | LIKRRQQKIR [HER2/neu peptide, position 674, 10 amino acids] |
| 0.22 ratio (IC50 of standard peptide / IC50 of test peptide) | KVLRENTSPK [HER2/neu peptide, position 753, 10 amino acids] |
| 0.0002 ratio (IC50 of standard peptide / IC50 of test peptide) | HLDMLRHLY (also called Her2/neu.42) [HER2/neu peptide, position 42, 9 amino acids] |
| 0.0097 ratio (IC50 of standard peptide / IC50 of test peptide) | ILIKRRQQK [HER2/neu peptide, position 673, 9 amino acids] |

biological target: T2, HLA-A*0301 (human); test: inhibition of 125I-labelled probe peptide binding to purified HLA-A*0301, gel filtration; ratio to standard peptide 941.12 ([..], 11 nM)
T2 construct: also called HLA-A3

| relative binding ratio (IC50 of standard peptide / IC50 of test peptide) | Binder |
| --- | --- |
| 0.0047 | GVVFGILIK [HER2/neu peptide, position 668, 9 amino acids] |
| 0.011 | GLACHQLCAR [HER2/neu peptide, position 508, 10 amino acids] |
| -0.0002 | GAMPNQAQMR [HER2/neu peptide, position 704, 10 amino acids] |
| 0.0037 | GLGISWLGLR [HER2/neu peptide, position 447, 10 amino acids] |
| -0.0002 | GMSYLEDVR [HER2/neu peptide, position 832, 9 amino acids] |
| 0.0002 | GLPREYVNAR [HER2/neu peptide, position 549, 10 amino acids] |
| -0.0002 | FSRMARDPQR [HER2/neu peptide, position 976, 10 amino acids] |
| 0.0003 | GASCVTACPY [HER2/neu peptide, position 292, 10 amino acids] |
| 0.0028 | GSGAFGTVY [HER2/neu peptide, position 727, 9 amino acids] |
| 0.015 | GILIKRRQQK [HER2/neu peptide, position 672, 10 amino acids] |
| 0.0002 | GAGGMVHHR [HER2/neu peptide, position 1038, 9 amino acids] |
| 0.001 | GVGSPYVSR [HER2/neu peptide, position 776, 9 amino acids] |
| 0.0003 | HADGGKVPIK [HER2/neu peptide, position 878, 10 amino acids] |
| -0.0002 | GMEHLREVR [HER2/neu peptide, position 346, 9 amino acids] |
| 0.021 | GTQRCEKCSK [HER2/neu peptide, position 327, 10 amino acids] |
| 0.066 | GSGAFGTVYK [HER2/neu peptide, position 727, 10 amino acids] |
| 0.0003 | GGAVENPEY [HER2/neu peptide, position 1188, 9 amino acids] |
